Results taken from patent publication US20170296640A1 (IMMATICS BIOTECHNOLOGIES, published 2017).

Biological target: T1, HLA-A*02:01 (peptide-receptive MHC class I monomer after UV cleavage of the UV-sensitive ligand) (human)
T1 construct: MHC monomers loaded by UV-ligand exchange and captured on streptavidin plates
Test: UV ligand-exchange ELISA; exchange yield grade (+ >=10%, ++ >=20%, +++ >=50%, ++++ >=75%)
Excerpt: Candidate peptides for T cell based therapies according to the present invention were further tested for their MHC binding capacity (affinity). The individual peptide-MHC complexes were produced by UV-ligand exchange, where a UV-sensitive peptide is cleaved upon UV-irradiation, and exchanged with the peptide of interest as analyzed. Only peptide candidates that can effectively bind and stabilize the peptide-receptive MHC molecules prevent dissociation of the MHC complexes. To determine the yield of the exchange reaction, an ELISA was performed based on the detection of the light chain (β2m) of stabilized MHC complexes. The assay was performed as generally described in Rodenko et al. (Rodenko et al., 2006).
96 well MAXISorp plates (NUNC) were coated over night with 2 ug/ml streptavidin in PBS at room temperature, washed 4× and blocked for 1 h at 37° C. in 2% BSA containing blocking buffer. Refolded HLA-A*02:01/MLA-001 monomers served as standards, covering the range of 15-500 ng/ml. Peptide-MHC monomers of the UV-exchange reaction were diluted 100 fold in blocking buffer. Samples were incubated for 1 h at 37° C., washed four times, incubated with 2 ug/ml HRP conjugated anti-β2m for 1 h at 37° C., washed again and detected with TMB solution that is stopped with […]. Absorption was measured at 450 nm. Candidate peptides that show a high exchange yield (preferably higher than 50%, most preferred higher than 75%) are generally preferred for a generation and production of antibodies or fragments thereof, and/or T cell receptors or fragments thereof, as they show sufficient avidity to the MHC molecules and prevent dissociation of the MHC complexes.

| peptide exchange yield | Binder |
| --- | --- |
| 50 to 75% | ALTGLQFQL [ALTGLQFQL (SEQ ID NO: 135)] |
| 50 to 75% | FLGELTLQL [FLGELTLQL (SEQ ID NO: 141)] |
| 50 to 75% | LLSGQLPTI [LLSGQLPTI (SEQ ID NO: 1)] |
| 50 to 75% | VLLGLPLLV [VLLGLPLLV (SEQ ID NO: 104)] |
| 50 to 75% | GLITQVDKL [GLITQVDKL (SEQ ID NO: 144)] |
| 50 to 75% | VIFSYVLGV [VIFSYVLGV (SEQ ID NO: 130)] |
| 50 to 75% | ELCDIILRV [ELCDIILRV (SEQ ID NO: 119)] |
| 50 to 75% | FVAPPTAAV [FVAPPTAAV (SEQ ID NO: 125)] |
| 50 to 75% | ILNPVTTKL [ILNPVTTKL (SEQ ID NO: 149)] |
| 50 to 75% | VLDGMIYAI [VLDGMIYAI (SEQ ID NO: 118)] |
| 50 to 75% | YLTGYNFTL [YLTGYNFTL (SEQ ID NO: 121)] |
| 50 to 75% | GLLQQPPAL [GLLQQPPAL (SEQ ID NO: 146)] |
| ≥ 75% | SLDQSTWNV [SLDQSTWNV (SEQ ID NO: 101)] |
| 50 to 75% | FIQQERFFL [FIQQERFFL (SEQ ID NO: 137)] |
| 50 to 75% | YLFQFSAAL [YLFQFSAAL (SEQ ID NO: 109)] |
| 50 to 75% | FLAILPEEV [FLAILPEEV (SEQ ID NO: 112)] |
| 50 to 75% | ILSEKEYKL [ILSEKEYKL (SEQ ID NO: 150)] |
| ≥ 75% | VLATILAQL [VLATILAQL (SEQ ID NO: 117)] |
| ≥ 75% | IIIEDLLEA [IIIEDLLEA (SEQ ID NO: 15)] |
| 20 to 50% | KIMYTLVSV [KIMYTLVSV (SEQ ID NO: 152)] |
| 50 to 75% | FLFEDFVEV [FLFEDFVEV (SEQ ID NO: 140)] |
| 20 to 50% | ALEELTGFREL [ALEELTGFREL (SEQ ID NO: 133)] |

| peptide exchange yield | Binder |
| --- | --- |
| 50 to 75% | LLLSDSGFYL [LLLSDSGFYL (SEQ ID NO: 159)] |
| 50 to 75% | KVLEFLAKV [KVLEFLAKV (SEQ ID NO: 157)] |
| 50 to 75% | KVQDVLHQV [KVQDVLHQV (SEQ ID NO: 158)] |
| 50 to 75% | YLAPENGYLM [YLAPENGYLM (SEQ ID NO: 108)] |
| 50 to 75% | VLTPVILQV [VLTPVILQV (SEQ ID NO: 105)] |
| 50 to 75% | SLFAAISGMIL [SLFAAISGMIL (SEQ ID NO: 102)] |
| 50 to 75% | ALGRLGILSV [ALGRLGILSV (SEQ ID NO: 134)] |
| 20 to 50% | AISEAQESV [AISEAQESV (SEQ ID NO: 122)] |
| 50 to 75% | FLYEDSKSVRL [FLYEDSKSVRL (SEQ ID NO: 142)] |
| 50 to 75% | VLLGTTWAL [VLLGTTWAL (SEQ ID NO: 120)] |
| ≥ 75% | YQYPFVLGL [YQYPFVLGL (SEQ ID NO: 110)] |
| 50 to 75% | ICAGHVPGV [ICAGHVPGV (SEQ ID NO: 148)] |
| 50 to 75% | HLMEENMIVYV [HLMEENMIVYV (SEQ ID NO: 127)] |
| 50 to 75% | SLQDHLEKV [SLQDHLEKV (SEQ ID NO: 103)] |
| ≥ 75% | FLASPLVAI [FLASPLVAI (SEQ ID NO: 139)] |
| 50 to 75% | KMLEDDLKL [KMLEDDLKL (SEQ ID NO: 156)] |
| 50 to 75% | YLLDTLLSL [YLLDTLLSL (SEQ ID NO: 111)] |
| 50 to 75% | FLGVVVPTV [FLGVVVPTV (SEQ ID NO: 124)] |
| 50 to 75% | FLLVGTQIDL [FLLVGTQIDL (SEQ ID NO: 10)] |
| 50 to 75% | KLFDASPTFFA [KLFDASPTFFA (SEQ ID NO: 128)] |
| 50 to 75% | VQAVSIPEV [VQAVSIPEV (SEQ ID NO: 107)] |
| 50 to 75% | GLLHEVVSL [GLLHEVVSL (SEQ ID NO: 145)] |

| peptide exchange yield | Binder |
| --- | --- |
| 20 to 50% | LLSDPTPGA [LLSDPTPGA (SEQ ID NO: 14)] |
| ≥ 75% | LLIDIIHFL [LLIDIIHFL (SEQ ID NO: 115)] |
| ≥ 75% | NLINNIFEL [NLINNIFEL (SEQ ID NO: 138)] |
| 50 to 75% | TLHAVDVTL [TLHAVDVTL (SEQ ID NO: 143)] |
| 50 to 75% | SLFEASQQL [SLFEASQQL (SEQ ID NO: 129)] |
| 50 to 75% | ALLSAFVQL [ALLSAFVQL (SEQ ID NO: 123)] |
| 20 to 50% | GLSDISPST [GLSDISPST (SEQ ID NO: 114)] |
| 50 to 75% | SLLDNLLTI [SLLDNLLTI (SEQ ID NO: 116)] |
| 50 to 75% | HLVPASWKL [HLVPASWKL (SEQ ID NO: 13)] |
| 20 to 50% | VLIEETDQL [VLIEETDQL (SEQ ID NO: 131)] |
| ≥ 75% | VLYELLQYI [VLYELLQYI (SEQ ID NO: 106)] |
| 50 to 75% | KLMNIQQQL [KLMNIQQQL (SEQ ID NO: 154)] |
| 50 to 75% | KLMTSLVKV [KLMTSLVKV (SEQ ID NO: 155)] |
| 50 to 75% | FIFGIVHLL [FIFGIVHLL (SEQ ID NO: 136)] |
| 50 to 75% | GLDTVVALL [GLDTVVALL (SEQ ID NO: 11)] |
| 50 to 75% | LLPPPSPAA [LLPPPSPAA (SEQ ID NO: 160)] |
| 50 to 75% | GLSEYQRNFL [GLSEYQRNFL (SEQ ID NO: 147)] |
| 50 to 75% | KLLKGIYAI [KLLKGIYAI (SEQ ID NO: 153)] |
| 50 to 75% | FVIDSFEEL [FVIDSFEEL (SEQ ID NO: 113)] |
| 20 to 50% | VLQDQVDEL [VLQDQVDEL (SEQ ID NO: 132)] |
| 50 to 75% | GLLLLVPLL [GLLLLVPLL (SEQ ID NO: 12)] |
| 50 to 75% | ILVKQSPML [ILVKQSPML (SEQ ID NO: 151)] |
